Reference: PMC6304784

What was measured:
[1] = target: N-terminally GFP-tagged full-length wild-type MyD88 (human) (UniProt Q99836); test: fluorescence correlation spectroscopy (FCS); GFP-tagged protein in the cell-free expression mixture; single diffusing species model; hydrodynamic radius normalised to sfGFP
[2] = target: N-terminally GFP-tagged full-length wild-type MyD88 (human) (UniProt Q99836); test: single-molecule fluorescence fluctuation spectroscopy (brightness B parameter, time-traces, intensity histograms); GFP-tagged protein freely diffusing in the cell-free expression mixture on a confocal microscope, 488-nm laser; dilution series of the DNA template giving 0 to about 320 nM protein; mutants compared at 150 nM; samples diluted 10 times in buffer A
[3] = target: mCherry-tagged full-length wild-type MyD88 (human) (UniProt Q99836); test: two-colour single-particle coincidence spectroscopy (seeding assay); mCherry-tagged full-length MyD88 filaments spun down and sonicated ('seeds') added to GFP-tagged full-length MyD88 expressed over a range of concentrations (10 nM and above); 488 nm and 561 nm lasers; traces of 180 s
Sequence of mCherry-tagged full-length wild-type MyD88 (human) (Q99836 whole entry): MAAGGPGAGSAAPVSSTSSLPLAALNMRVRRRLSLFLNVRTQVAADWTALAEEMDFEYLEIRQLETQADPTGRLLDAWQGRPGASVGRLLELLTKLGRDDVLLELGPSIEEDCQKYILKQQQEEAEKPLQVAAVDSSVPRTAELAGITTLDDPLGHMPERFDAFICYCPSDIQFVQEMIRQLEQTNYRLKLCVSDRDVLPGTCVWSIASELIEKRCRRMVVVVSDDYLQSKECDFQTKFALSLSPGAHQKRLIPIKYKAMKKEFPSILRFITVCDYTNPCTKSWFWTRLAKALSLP

Substance: N-terminally GFP-tagged full-length wild-type MyD88 (from UniProt Q99836 1-296) (natural protein)
- stoichiometry N (monomeric units) [1]: > 100
- critical concentration for aggregation (Cc) [2]: 150 nM
- stoichiometry N [2]: > 100 proteins
- critical concentration for polymerisation in the presence of seeds [3]: 10 nM
